Bridges are numbered along the chain shown (N, C = ends). Where no end group is shown, it is not given here.
How the values were obtained:
[1] = target: T1, scHGF β-chain (zymogen-like HGF β, residues Asn479 to Ser728, R494E, C-terminal His-tag) (human, UniProt P14210 479-728); assay: cell-based or functional assay
[2] = target: T1, scHGF β-chain (zymogen-like HGF β, …); assay: activity-based phage sorting: library with 0.5 µM scHGF β in solution, complex captured on a Met Sema-PSI coated plate; the clones as a group are plotted in FIG. 9B
Protocol: Where activity-based sorting was conducted, the phage library was incubated in solution with 0.5 μM scHGF β at 4° C. then the mixture was applied to a Maxi-Sorp plate coated with 5 μg/ml Met Sema-PSI ECD protein for capture of activated complex. To analyze phage clones from the activity-based sorting two ELISAs were carried out separately to analyze binding and activity. The first ELISA measured direct phage binding to wells coated with 5 μg/ml scHGF β relative to a BSA control. The second activity ELISA measured phage binding to wells coated with 5 μg/ml Met in the presence or absence (negative control) of 0.5 μM scHGF β in solution. The data from these two ELISAs were plotted with direct binding on the y-axis and Met capture (activity) on the x-axis.
The new 15-mer ZAP-gene VIII phage library contained two main regions that were preferentially shielded from hard-randomization, the N-terminal motif which inserted into the activation pocket and a portion of the reverse turn motif that packs against the protein surface in the bound state (FIG. 8A). […] Phage clones from the solution sort and activity-based sort were sequenced and subjected to a 2-dimensional ELISA analysis, where the clones were analyzed for (i) direct scHGF β binding and (ii) the ability of phage clones to be captured by Met only in the presence of scHGF β.

[3] = target: T1, scHGF β-chain (zymogen-like HGF β, …); assay: BLI, peptide-dependent activation of zHGF β binding to surface immobilized Met ECD
Protocol: (§1) Met binding assays were carried out utilizing the OctetRed™ biolayer interferometry instrument (ForteBio, Inc.) as reported previously (Landgraf, K. E. et al. (2010) J Biol Chem 285: 40362-72). Biotinylated Met ECD (Sema/PSI-AviTag) was captured on the surface of streptavidin optical sensor tips (SA biosensors, ForteBio, Inc.), and transferred into buffer containing 0.5 μM scHGF β-chain variants in the presence of increasing concentration of indicated peptides. Association and dissociation reactions were monitored to ensure reversible binding between scHGF β and Met. Binding was quantified using the steady-state levels of surface response from the association reaction. Equilibrium constants were derived by least squares fitting of the titration data to a single-site binding equation. Errors reported are ±stdev of n=3 independent experiments.

[4] = target: T1, scHGF β-chain (zymogen-like HGF β, …); assay: BLI (OctetRed) scHGF β activation/Met binding assay: peptide titrated into 0.5 µM scHGF β over biotinylated Met Sema/PSI on streptavidin tips; steady-state single-site fit
Protocol: as §1
Based on the finding that the consensus ZAPs contain features consistent with binding and inserting into the activation pocket, several related peptides were synthesized and utilized in a previously established scHGF β activation assay to assess their affinities and ability to active Met binding (Landgraf, K. E. et al. (2010) J Biol Chem 285: 40362-72). Since scHGF β can only weakly interact with the Met Sema-PSI domain compared to the active HGF β form, biolayer interferometry was used in the activation assay to measure the ability of a peptide to directly enhance the binding affinity of scHGF β to a streptavidin sensor surface coated with biotinylated Met (Landgraf, K. E. et al. (2010) J Biol Chem 285: 40362-72). Thus, titration of an activator peptide should result in a significant increase in the surface response signal due to enhanced scHGF β binding to Met.

[5] = target: T1, scHGF β-chain (zymogen-like HGF β, …); assay: BLI scHGF β activation/Met binding assay
[6] = target: scHGF (non-cleavable form of full-length pro-HGF with a mutated cleavage site) (human, UniProt P14210 32-728); assay: cell-based or functional assay
[7] = target: T1, scHGF β-chain (zymogen-like HGF β, …); assay: biolayer interferometry: biotinylated Met Sema/PSI on streptavidin tips, 0.5 µM scHGF β in solution, peptide titrated; steady-state surface response of scHGF β binding to Met
Protocol: as §1
Based on the finding that the consensus ZAPs contain features consistent with binding and inserting into the activation pocket, several related peptides were synthesized and utilized in a previously established scHGF β activation assay to assess their affinities and ability to active Met binding (Landgraf, K. E. et al. (2010) J Biol Chem 285: 40362-72). […]

T1 sequence (P14210 479-728 R494E): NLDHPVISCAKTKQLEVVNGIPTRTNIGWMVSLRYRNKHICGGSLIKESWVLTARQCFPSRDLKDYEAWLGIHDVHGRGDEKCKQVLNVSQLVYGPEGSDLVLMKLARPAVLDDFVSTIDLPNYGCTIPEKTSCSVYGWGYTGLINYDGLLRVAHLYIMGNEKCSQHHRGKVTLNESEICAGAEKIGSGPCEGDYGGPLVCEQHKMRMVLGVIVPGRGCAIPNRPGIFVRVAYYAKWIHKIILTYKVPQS
Chain of scHGF (non-cleavable form of full-length pro-HGF with a mutated cleavage site) (P14210 32-728 limits assumed, change not shown): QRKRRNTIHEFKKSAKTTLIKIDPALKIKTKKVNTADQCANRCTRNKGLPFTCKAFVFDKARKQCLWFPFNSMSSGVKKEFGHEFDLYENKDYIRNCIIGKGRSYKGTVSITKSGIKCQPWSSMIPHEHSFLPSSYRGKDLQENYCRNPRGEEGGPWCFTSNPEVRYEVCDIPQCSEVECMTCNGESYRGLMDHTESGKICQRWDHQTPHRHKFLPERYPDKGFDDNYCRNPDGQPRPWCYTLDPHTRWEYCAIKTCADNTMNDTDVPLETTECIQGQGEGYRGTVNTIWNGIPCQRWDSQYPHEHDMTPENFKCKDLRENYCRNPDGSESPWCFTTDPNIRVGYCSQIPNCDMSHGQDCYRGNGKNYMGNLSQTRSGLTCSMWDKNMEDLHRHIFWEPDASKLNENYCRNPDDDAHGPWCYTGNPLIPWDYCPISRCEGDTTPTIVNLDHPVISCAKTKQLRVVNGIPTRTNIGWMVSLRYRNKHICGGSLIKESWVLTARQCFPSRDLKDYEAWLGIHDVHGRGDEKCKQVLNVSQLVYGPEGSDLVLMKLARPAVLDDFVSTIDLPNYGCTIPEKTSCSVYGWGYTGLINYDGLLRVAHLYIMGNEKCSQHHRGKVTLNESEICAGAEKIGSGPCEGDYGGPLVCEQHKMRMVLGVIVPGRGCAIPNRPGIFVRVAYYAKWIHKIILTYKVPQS

Q: How did the “activity (alanine scanning of the YPWWM turn motif), loss against IVGG.14” value [1] turn out when IVGGYAWWMDV-NH2 [IVGG.14 P6A variant] was run?
A: 25 fold

Q: How did the “activity (alanine scanning of the YPWWM turn motif), loss against IVGG.14” value [1] turn out when IVGGYPWAMDV-NH2 [IVGG.14 W8A variant] was run?
A: 10 fold

Q: Does IIGGCPYWMDREECI (disulfide 5-14) [ZAP.03] bind [2]?
A: binds

B1: IVGG.14 peptide (peptide)
peptide: IVGGYPWWMDV-NH2
notes: Synthetic peptide; also called possibly ZAP.14
Q: How did the “fold improvement over previous activators” value [3] turn out when B1 was run?
A: > 90 fold

Q: What about the Kd [4] of the same binder?
A: 34 µM

Q: What about the “fold more potent than the peptides derived from the native N-terminus of the β-chain of HGF” value [5] of the same binder?
A: ~60 fold

Q: And the “EC50, BxPC-3 cell survival assay, peptide titrated with scHGF” value [6]?
A: ~20 µM

Q: Does IVGDYPWWMDV-NH2 [IVGD.14 peptide] bind [7]?
A: no binding

Q: Does IVDDYPWWMDV-NH2 [IVDD.14 peptide] bind [7]?
A: no binding (tested: about 125 µM)
